What was measured:
α, β and γ ENaC subunits = biological target: T1, α, β and γ ENaC subunits (Rattus norvegicus, UniProt P37089+P37090+P37091); assay: Co-immunoprecipitation of V5-tagged SPLUNC1 with HA-tagged ENaC subunits from Xenopus oocytes; format: binding; settings: anti-HA immunoprecipitation, probed for V5-tagged SPLUNC1
T1 construct: expressed in transfected cells; host or cells: Xenopus oocytes (cRNA injection), lysates
T1 sequence (P37089 1-698): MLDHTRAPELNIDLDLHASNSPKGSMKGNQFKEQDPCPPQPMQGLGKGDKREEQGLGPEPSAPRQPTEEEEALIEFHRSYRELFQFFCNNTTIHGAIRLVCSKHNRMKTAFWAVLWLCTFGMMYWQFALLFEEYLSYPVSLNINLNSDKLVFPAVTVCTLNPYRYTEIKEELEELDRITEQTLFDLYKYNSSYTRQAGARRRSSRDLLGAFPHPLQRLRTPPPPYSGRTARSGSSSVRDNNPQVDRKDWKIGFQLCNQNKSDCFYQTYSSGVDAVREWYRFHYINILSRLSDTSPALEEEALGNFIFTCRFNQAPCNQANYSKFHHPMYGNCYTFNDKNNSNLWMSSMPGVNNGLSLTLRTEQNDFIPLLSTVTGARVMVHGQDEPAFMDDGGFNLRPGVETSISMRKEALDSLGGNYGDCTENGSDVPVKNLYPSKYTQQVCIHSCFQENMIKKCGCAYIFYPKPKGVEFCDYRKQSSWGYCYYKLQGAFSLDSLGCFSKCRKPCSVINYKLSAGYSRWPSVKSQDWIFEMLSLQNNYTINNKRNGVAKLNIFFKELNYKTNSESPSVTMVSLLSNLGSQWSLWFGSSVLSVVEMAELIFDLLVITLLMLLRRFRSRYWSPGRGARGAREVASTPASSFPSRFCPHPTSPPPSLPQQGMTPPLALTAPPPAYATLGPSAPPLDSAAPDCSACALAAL
T1 sequence (P37090 1-638): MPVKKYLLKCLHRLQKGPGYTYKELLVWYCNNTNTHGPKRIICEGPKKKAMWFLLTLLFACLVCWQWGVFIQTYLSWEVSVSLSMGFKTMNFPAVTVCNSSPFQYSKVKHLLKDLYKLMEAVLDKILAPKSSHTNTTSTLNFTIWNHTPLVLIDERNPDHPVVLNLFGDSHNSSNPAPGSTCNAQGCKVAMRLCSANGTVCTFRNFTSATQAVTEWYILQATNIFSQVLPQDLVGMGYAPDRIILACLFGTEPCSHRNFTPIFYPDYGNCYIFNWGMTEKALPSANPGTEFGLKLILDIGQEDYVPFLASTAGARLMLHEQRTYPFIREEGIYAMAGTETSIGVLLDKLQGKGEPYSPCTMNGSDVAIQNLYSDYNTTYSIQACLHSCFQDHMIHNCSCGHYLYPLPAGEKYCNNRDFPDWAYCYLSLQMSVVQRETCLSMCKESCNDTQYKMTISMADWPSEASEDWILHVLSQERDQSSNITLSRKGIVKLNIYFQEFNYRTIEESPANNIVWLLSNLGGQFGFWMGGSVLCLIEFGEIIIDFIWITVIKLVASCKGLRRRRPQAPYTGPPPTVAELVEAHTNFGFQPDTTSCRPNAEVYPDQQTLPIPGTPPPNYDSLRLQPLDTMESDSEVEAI
T1 sequence (P37091 1-650): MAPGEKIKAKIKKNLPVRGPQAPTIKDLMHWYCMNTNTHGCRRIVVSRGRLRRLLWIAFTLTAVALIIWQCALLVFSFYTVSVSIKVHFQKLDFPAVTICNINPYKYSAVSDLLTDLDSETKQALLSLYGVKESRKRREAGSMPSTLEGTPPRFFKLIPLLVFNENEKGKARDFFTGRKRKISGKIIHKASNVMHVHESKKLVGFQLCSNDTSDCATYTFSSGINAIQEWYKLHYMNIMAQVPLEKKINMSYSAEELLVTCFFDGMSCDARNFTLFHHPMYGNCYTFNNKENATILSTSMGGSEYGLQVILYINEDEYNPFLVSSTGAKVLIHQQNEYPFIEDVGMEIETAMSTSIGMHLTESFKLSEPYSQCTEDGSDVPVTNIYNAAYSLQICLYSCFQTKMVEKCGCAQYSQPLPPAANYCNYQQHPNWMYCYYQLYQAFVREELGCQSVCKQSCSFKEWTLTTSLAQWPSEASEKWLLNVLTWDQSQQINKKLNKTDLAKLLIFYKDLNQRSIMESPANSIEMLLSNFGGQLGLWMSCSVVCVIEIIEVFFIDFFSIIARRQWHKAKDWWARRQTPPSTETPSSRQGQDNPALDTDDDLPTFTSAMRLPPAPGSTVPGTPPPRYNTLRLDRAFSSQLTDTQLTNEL
Protocol: Co-Immunoprecipitation: Xenopus oocytes were injected with either HA-N-Terminus or V5-C-Terminus (HA-NT/V5-CT) tagged subunits in combination with wild type (WT) untagged rat αβγENaC subunits (0.3 ng cRNA each) with or without V5-tagged SPLUNC1 and CAP2 (1 ng cRNA each). After 24 h, 40 eggs per experimental condition were lysed with buffer containing (in mM): 20 Tris, 50 NaCl, 50 NaF, 10 β-glycerophosphate, 5 Na4P2O7 pyrophosphate, 1 EDTA, pH 7.5 and protease inhibitors (complete, Roche), aprotinin (Sigma). Cell lysates were prepared by passing the eggs through a 27 G1/2 needle twice and by centrifugation at 3,600 rpm for 10 minutes at 4° C. Supernatants were transferred to new tubes and samples were spun at 14,000 rpm for 20 minutes at 4° C. Supernatants were discarded and pellets were solubilized in (mM) 50 Tris, 100 NaCl, 0.1% Triton X-100, 0.1% NP-40, 20 NaF, 10 Na4P2O7, 10 EDTA+protease inhibitor cocktail (Sigma), pH 7.5. Total inputs were taken from whole cell samples representing 4% of total protein. Solubilized proteins were incubated with 50 μl of protein A and 5 μl of anti-HA antibody (Covance) overnight while tumbling at 4° C. Samples were washed three times with (mM) 150 NaCl 50 Tris pH 7.5 buffer. Laemmli buffer was added and samples were loaded on a 15% gradient Tris-glycine gel after incubation for 10 minutes at 96° C. […]

serine proteases = assay: Endogenous protease activity (BGAR-MCA cleavage) on mucosal surfaces of human bronchial epithelial cultures; format: cell-based
Protocol: For cell-free assays, reactions were carried out in 50 μl Ringer in a 96 well plate format with 100 μM BGAR-MCA. To measure endogenous protease activity in human bronchial epithelial cultures, 30 μl Ringer with 100 μM BGAR-MCA were placed directly onto the mucosal surfaces of human bronchial epithelial cultures grown on 12 mm T-clear inserts and the cultures were assayed in 12 well plates.

B1: SPLUNC1: human SPLUNC1, 256 amino acid secreted PLUNC protein (SEQ ID NO:1); rSPLUNC1 = V5/6His-tagged protein purified from HEK293 media (protein, listed as Homo sapiens)
chain: MFQTGGLIVFYGLLAQTMAQFGGLPVPLDQTLPLNVNPALPLSPTGLAGSLTNALSNGLLSGGLLGILENLPLLDILKPGGGTSGGLLGGLLGKVTSVIPGLNNIIDIKVTDPQLLELGLVQSPDGHRLYVTIPLGIKLQVNTPLVGASLLRLAVKLDITAEILAVRDKQERIHLVLGDCTHSPGSLQISLLDGLGPLPIQGLLDSLTGILNKVLPELVQGNVCPLVNEVLRGLDITLVHDIVNMLIHGLQFVIKV
modifications: V5/6His tag
notes: rSPLUNC1 = V5/6His-tagged protein purified from HEK293 media
- binding to ENaC subunits (co-immunoprecipitation) (α, β and γ ENaC subunits): bound to all three ENaC subunits
- spontaneous BGAR-MCA cleavage on mucosal surfaces (serine proteases): no significant affect

From patent US9549967B2, “Regulation of sodium channels by PLUNC proteins” (The University of North Carolina at Chapel Hill, priority 2009, dated 2017)
